Reference: publication PMC4304707, “Regulation of Oncogene Expression in T-DNA-Transformed Host Plant Cells”

Target: T1, 6xHis-WRKY40 (Arabidopsis thaliana, UniProt Q9SAH7 1-302)
T1 sequence: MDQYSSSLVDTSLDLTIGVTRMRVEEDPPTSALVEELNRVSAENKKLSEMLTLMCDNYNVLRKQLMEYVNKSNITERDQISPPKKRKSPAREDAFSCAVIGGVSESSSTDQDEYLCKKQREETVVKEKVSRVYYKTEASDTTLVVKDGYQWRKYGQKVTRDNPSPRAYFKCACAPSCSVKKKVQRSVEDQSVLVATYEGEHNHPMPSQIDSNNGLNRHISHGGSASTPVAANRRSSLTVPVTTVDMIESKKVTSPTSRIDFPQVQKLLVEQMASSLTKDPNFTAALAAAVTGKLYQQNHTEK
Assay: EMSA; 150 ng weak band, 300 ng much stronger band; about 5 ng probe; unlabeled probe competitor significantly reduced binding
Settings: protein: recombinant; tags: N-terminal 6xHis (pET28b, NdeI/XhoI); label: 32P 5' end (T4 PNK); blunt (implied by two complementary oligonucleotides)

B1: Ipt promoter probe (-184 to -135) (dsDNA)
DNA 1: GATTTAGTCAGCCTTATTTGACTTAAGGGTGCCCTCGTTAGTGACAAATT
DNA 2: AATTTGTCACTAACGAGGGCACCCTTAAGTCAAATAAGGCTGACTAAATC
binding result: binds
